For experiment [1], the target named is T1, human nerve growth factor (human, UniProt P01138 122-241).
T1 construct: Immobilised on CM5 chips for BIAcore, soluble in neuron survival assays; also called human NGF; hNGF
As to the kind of experiment: BIAcore SPR, Fab over immobilised human NGF. A general note: In SPR one partner is held on a chip, and binding of the other changes the refractive index at the surface.

The target of experiment [2] is T1, human nerve growth factor. Nature of the experiment: BIAcore SPR screen, Fab over immobilised human NGF. As for the experimental part: (§1) A screening BIAcore assay was optimized to determine the affinity of Fab clones from libraries. Supernatants of small culture lysates were injected at […] for 2 min. Dissociation times of 10 to 15 minutes were used for determination of a single exponential dissociation rate (koff) using BIAevaluation software. […] Clones showing improved (slower) koff values were expressed at large scale and full kinetic parameters, kₒₙ and koff, were determined on purified protein.

Experiment [3] deals with T1, human nerve growth factor. As to the kind of experiment: BIAcore SPR screen, Fab over immobilised human NGF; KD calculated from koff with kon 4e4 M-1s-1. As for the experimental part: as §1
Experiment [4] deals with T1, human nerve growth factor. As to the kind of experiment: cell-based or functional assay.
The target in experiment [5] is rat nerve growth factor (rat, UniProt P25427 122-241). Nature of the experiment: cell-based or functional assay.
Sequence of rat nerve growth factor (P25427 122-241 limits assumed): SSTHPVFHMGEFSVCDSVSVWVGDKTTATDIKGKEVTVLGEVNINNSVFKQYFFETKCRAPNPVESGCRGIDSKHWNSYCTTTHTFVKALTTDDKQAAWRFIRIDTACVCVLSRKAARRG
The target of experiment [6] is T1, human nerve growth factor. Nature of the experiment: BIAcore SPR, purified Fab over immobilised human NGF (100 RU); purified Fab 3C, 100 RU NGF on chip. As for the experimental part: (§2) Affinities of anti-NGF Fabs and monoclonal antibodies were determined using the BIAcore3000™ surface plasmon resonance (SPR) system (BIAcore, INC, Piscaway N.J.). CM5 chips were activated with N-ethyl-N′-(3-dimethylaminopropyl)-carbodiinide hydrochloride (EDC) and N-hydroxysuccinimide (NETS) according to the supplier's instructions. Human NGF was diluted into 10 mM sodium acetate pH 4.0 and injected over the activated chip at a concentration of 0.005 mg/mL. Using variable flow time across the individual chip channels, two ranges of antigen density were achieved: 100-200 response units (RU) for detailed kinetic studies and 500-600 RU for screening assays. The chip was blocked with ethanolamine. […] HBS-EP buffer (0.01M HEPES, pH 7.4, 0.15 NaCl, 3 mM EDTA, 0.005% Surfactant […]) was used as running buffer for all the BIAcore assays.
Briefly, several concentrations of antibodies (Fabs) were injected for 2 minutes onto a CM5 chip with 100 RU of immobilized human NGF on it, and permitted to dissociate for 1800 seconds. […] Data was analyzed using BIAevaluation software following the manufacturer's instructions.

Experiment [7] concerns the target T1, human nerve growth factor. As to the kind of experiment: BIAcore SPR screen, Fab over immobilised human NGF. As for the experimental part: as §1
(§3) For affinity screening experiments, each library was further paired with the corresponding CDR-grafted light or heavy chain (for example, the H1/H2 library was paired with CDR-grafted light chain), the antibody was expressed, and affinity to human NGF of the individual clones was screened using the BIACORE surface plasmon resonance (SPR) system (BIAcore, Inc. Piscataway, N.J.) according to the manufacturer's instructions and as described above. koff, kₒₙ and KD were determined. Antibody clones were ranked based on koff rates, since generally most variation in affinity is seen in koff rates, and further because koff rates are independent of antibody concentration.
This is another data set of the same source.

For experiment [8], the target named is T1, human nerve growth factor. Nature of the experiment: BIAcore SPR screen, Fab over immobilised human NGF. As for the experimental part: as §1
(§4) 20-80 clones from each small library were screened using BIAcore analysis as described herein. Samples were simultaneously analyzed by BIAcore for binding affinity to NGF in one channel of the BIAcore chip and for presence of Fab by binding to a penta-histag antibody in another channel of the sensor chip, to detect the his tag at the C terminus of the heavy chain. Clones that expressed protein were classified as having the same affinity, worse affinity, better affinity or no binding, using koff to classify: The results of this analysis are shown in Table 5.
The source holds these as a separate data set.

For experiment [9], the target named is T1, human nerve growth factor. Nature of the experiment: BIAcore SPR screen, Fab over immobilised human NGF; KD calculated from koff with kon 4e4 M-1s-1. As for the experimental part:
as §1, §3
The source holds these as a separate data set.

In experiment [10] the target is T1, human nerve growth factor. The experiment is described as above. As for the experimental part: as §1, §4
This is another data set of the same source.

Experiment [11] addresses T1, human nerve growth factor. As to the kind of experiment: BIAcore SPR screen, Fab over immobilised human NGF; KD calculated from koff with kon 4e4 M-1s-1; 8L2-6D5 template, not H19-L129 template. As for the experimental part: as §2, §1
For experiment [12], the target named is T1, human nerve growth factor. Nature of the experiment: BIAcore SPR screen, Fab over immobilised human NGF. This is another data set of the same source.
The target of experiment [13] is T1, human nerve growth factor. As to the kind of experiment: BIAcore SPR screen, Fab over immobilised human NGF; KD calculated from koff with kon 4e4 M-1s-1; screening KD calculated from koff with the fixed kon 4e4; paragraph 422 gives about 1 nM.

T1 sequence (P01138 122-241 limits assumed): as the sequence (P25427 122-241 limits assumed) above, with T3S, V6I, M9R, T37M, A60D, E65D, T92M, D94G, A117V, G120A counted along it

B1: 8L2-4D5 (CDR-grafted antibody, template) (Fab, V domains shown)
VH: QVQLQESGPGLVKPSETLSLTCTVSGFSLIGYDINWIRQPPGKGLEWIGMIWGDGTTDYNSALKSRVTISVDTSKNQFSLKLSSVTAADTAVYYCARGGYYYGTSYYFDYWGQGTLVTVS
VL: DIQMTQSPSSLSASVGDRVTITCRASQDISNHLNWYQQKPGKAPKLLIYYISRFHSGVPSRFSGSGSGTDFTFTISSLQPEDIATYYCQQSKTLPYTFGQGTKLEIKR
For orientation: Kd means the concentration at which binding is half-saturated. For the molecule B1, the Kd in experiment [1] is about 38 nM.

B2: H19-L129 template Fab with L_S91E; L_K92S and H_Y101W; H_G103S (Fab, V domains shown)
VH: QVQLQESGPGLVKPSETLSLTCTVSGFSLIGYDLNWIRQPPGKGLEWIGIIWGDGTTDYNSAVKSRVTISKDTSKNQFSLKLSSVTAADTAVYYCARGGYWYSTSYYFDYWGQGTLVTVS
VL: DIQMTQSPSSLSASVGDRVTITCRASQSISNNLNWYQQKPGKAPKLLIYYTSRFHSGVPSRFSGSGSGTDFTFTISSLQPEDIATYYCQQESTLPYTFGQGTKLEIKR
notes: See note of m8
As a reminder, the koff is a measure of how fast the partners let go of each other. As for B2, in experiment [2], the koff was 4.7e-05 s⁻¹. Further, the Kd in experiment [3] is 1.1 nM.

B3: 8L2-6D5 template Fab with L_S91E; L_K92A and H_Y101W; H_G103A (Fab, V domains shown)
VH: QVQLQESGPGLVKPSETLSLTCTVSGFSLIGYDINWIRQPPGKGLEWIGMIWGDGTTDYNSALKSRVTISKDTSKNQFSLKLSSVTAADTAVYYCARGGYWYATSYYFDYWGQGTLVTVS
VL: DIQMTQSPSSLSASVGDRVTITCRASQDISNHLNWYQQKPGKAPKLLIYYISRFHSGVPSRFSGSGSGTDFTFTISSLQPEDIATYYCQQEATLPYTFGQGTKLEIKR
notes: See note of m8
Molecule B3 showed a koff in experiment [2] of 0.00055 s⁻¹. Moreover, the Kd in experiment [3] is 13 nM.

B4: H19-L129 template Fab with L_S91E; L_K92K and H_Y101Y; H_G103A (Fab, V domains shown)
VH: QVQLQESGPGLVKPSETLSLTCTVSGFSLIGYDLNWIRQPPGKGLEWIGIIWGDGTTDYNSAVKSRVTISKDTSKNQFSLKLSSVTAADTAVYYCARGGYYYATSYYFDYWGQGTLVTVS
VL: DIQMTQSPSSLSASVGDRVTITCRASQSISNNLNWYQQKPGKAPKLLIYYTSRFHSGVPSRFSGSGSGTDFTFTISSLQPEDIATYYCQQEKTLPYTFGQGTKLEIKR
notes: See note of m8
B4 showed a koff in [2] of 2e-05 s⁻¹. In addition, the dissociation constant (Kd) in experiment [3] was 0.5 nM.

B5: clone 3C (Fab) (Fab, V domains shown)
VH: QVQLQESGPGLVKPSETLSLTCTVSGFSLIGYDLNWIRQPPGKGLEWIGIIWGDGTTDYNSAVKSRVTISKDTSKNQFSLKLSSVTAADTAVYYCARGGYWYATSYYFDYWGQGTLVTVS
VL: DIQMTQSPSSLSASVGDRVTITCRASQSISNNLNWYQQKPGKAPKLLIYYTSRFHSGVPSRFSGSGSGTDFTFTISSLQPEDIATYYCQQERTLPYTFGQGTKLEIKR
notes: same L1, L2, H1, H2 mutations as 3E; See note of m8; also called Fab 3C
As to B5, in experiment [4], the “IC50, human NGF-dependent survival of mouse E13.5 trigeminal neurons (1.5 pM NGF)” value was 5.6 pM and the “IC50, human NGF-dependent survival of mouse E13.5 trigeminal neurons (15 pM NGF)” value (shortened to “IC50, human NGF-dependent survival … (15 pM NGF)”) is 80.9 pM. Besides, in experiment [5], the “IC50, rat NGF-dependent survival of mouse E13.5 trigeminal neurons (1.5 pM NGF)” value (from here on “IC50, rat NGF-dependent survival … (1.5 pM NGF)”) came to 6 pM and the “IC50, rat NGF-dependent survival of mouse E13.5 trigeminal neurons (15 pM NGF)” value (“IC50, rat NGF-dependent survival … (15 pM NGF)” below) was 31.6 pM. The molecule also had a koff in experiment [2] of 1.4e-05 s⁻¹. Further, in experiment [6], the Kd is about 0.35 nM and the koff was about 1.4e-05 s⁻¹. In addition, the dissociation constant (Kd) in [3] was 0.35 nM.

B6: 8L2-6D5 (CDR-grafted antibody with framework mutation V71K) (Fab, V domains shown)
VH: QVQLQESGPGLVKPSETLSLTCTVSGFSLIGYDINWIRQPPGKGLEWIGMIWGDGTTDYNSALKSRVTISKDTSKNQFSLKLSSVTAADTAVYYCARGGYYYGTSYYFDYWGQGTLVTVS
VL: DIQMTQSPSSLSASVGDRVTITCRASQDISNHLNWYQQKPGKAPKLLIYYISRFHSGVPSRFSGSGSGTDFTFTISSLQPEDIATYYCQQSKTLPYTFGQGTKLEIKR
notes: Fab (human IgG2 CH1 + C-kappa, His tag at heavy chain C terminus); also called 8L2-6D5 Fab; 8L2-6D5 (control)
Regarding B6, in experiment [4], the “IC50, human NGF-dependent survival of mouse E13.5 trigeminal neurons (1.5 pM NGF)” value is 462 pM. Moreover, the “IC50, human NGF-dependent survival … (15 pM NGF)” value in experiment [4] turned out to be 1580 pM. In addition, the “IC50, rat NGF-dependent survival … (1.5 pM NGF)” value in [5] turned out to be 169 pM. The “IC50, rat NGF-dependent survival … (15 pM NGF)” value in experiment [5] came to 730 pM. In addition, the Kd is about 15 nM in [1], 25 nM in [9], 25 nM in experiment [10] and 25 nM in [3]. Besides, the koff in experiment [7], in experiment [8] and in [2] was 0.001 s⁻¹ in each case.

B7: H19-L129 template Fab with L_S91E; L_K92R and H_Y101Y; H_G103A (Fab, V domains shown)
VH: QVQLQESGPGLVKPSETLSLTCTVSGFSLIGYDLNWIRQPPGKGLEWIGIIWGDGTTDYNSAVKSRVTISKDTSKNQFSLKLSSVTAADTAVYYCARGGYYYATSYYFDYWGQGTLVTVS
VL: DIQMTQSPSSLSASVGDRVTITCRASQSISNNLNWYQQKPGKAPKLLIYYTSRFHSGVPSRFSGSGSGTDFTFTISSLQPEDIATYYCQQERTLPYTFGQGTKLEIKR
notes: See note of m8
With B7, in experiment [2], the koff is 1.5e-05 s⁻¹. Also, the Kd in experiment [3] is 0.37 nM.

B8: 8L2-6D5 template Fab with L_S91E; L_K92R and H_Y101W; H_G103A (Fab, V domains shown)
VH: QVQLQESGPGLVKPSETLSLTCTVSGFSLIGYDINWIRQPPGKGLEWIGMIWGDGTTDYNSALKSRVTISKDTSKNQFSLKLSSVTAADTAVYYCARGGYWYATSYYFDYWGQGTLVTVS
VL: DIQMTQSPSSLSASVGDRVTITCRASQDISNHLNWYQQKPGKAPKLLIYYISRFHSGVPSRFSGSGSGTDFTFTISSLQPEDIATYYCQQERTLPYTFGQGTKLEIKR
notes: See note of m8
Turning to B8, the koff in experiment [2] is 0.0001 s⁻¹. Also, in [11], the Kd was 2.5 nM.

B9: H19-L129 (combined clone, H1 H2 L1 L2 matured) (Fab, V domains shown)
VH: QVQLQESGPGLVKPSETLSLTCTVSGFSLIGYDLNWIRQPPGKGLEWIGIIWGDGTTDYNSAVKSRVTISKDTSKNQFSLKLSSVTAADTAVYYCARGGYYYGTSYYFDYWGQGTLVTVS
VL: DIQMTQSPSSLSASVGDRVTITCRASQSISNNLNWYQQKPGKAPKLLIYYTSRFHSGVPSRFSGSGSGTDFTFTISSLQPEDIATYYCQQSKTLPYTFGQGTKLEIKR
notes: See note of m8; also called H19-L129 Fab; Fab H19-L129
With B9, in [4], the “IC50, human NGF-dependent survival of mouse E13.5 trigeminal neurons (1.5 pM NGF)” value was 9.6 pM and the “IC50, human NGF-dependent survival … (15 pM NGF)” value stood at 60.1 pM. Besides, in experiment [5], the “IC50, rat NGF-dependent survival … (1.5 pM NGF)” value was 6 pM and the “IC50, rat NGF-dependent survival … (15 pM NGF)” value was 31 pM. The same molecule returned a Kd in experiment [1] of about 1 nM. In experiment [12], this molecule gave a koff of 0.00011 s⁻¹. Also, in [2], the koff worked out at 0.00011 s⁻¹. In addition, the Kd in experiment [13] was about 2.75 nM.

(Values after patent publication US20170088610A1 (RINAT NEUROSCIENCE, published 2017).)
